Source: patent US20180230457A1 (published 2018)
Changes are numbered by the printed parent chain. Each block holds one binder with its values, some of them ahead of it.

Experiments:
[1] = molecular target: T1, bovine pancreatic RNase A (bovine, UniProt P61823 27-150); test: ITC, 25 C, no metal
T1 construct: mature; Commercial purified protein; Used unmodified in ITC and as plate coat; biotinylated only for phage selection
T1 sequence (looked up): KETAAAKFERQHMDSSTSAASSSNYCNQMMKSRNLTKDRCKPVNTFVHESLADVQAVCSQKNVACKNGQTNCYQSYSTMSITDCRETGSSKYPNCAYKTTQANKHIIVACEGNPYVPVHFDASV
Description: (§1) ITC experiments were performed using a MicroCal VP-ITC (MicroCal, LLC, Northampton, Mass.). All experiments were performed at 25° C. Proteins were dialyzed against the desired experimental buffer, which included PBS (20 mM NaPhosphate, 150 mM NaCl pH 7.4), TBS (20 mM Tris-HCl, 150 mM NaCl pH 7.4) and TBS-E (20 mM Tris, 150 mM NaCl, 1 mM EDTA, pH 7.4). For direct titration of NiCl₂ into the VHH-metal variant, concentrations were 2 mM and 200 μM for NiCl2 and VHH, respectively. Based on the observed binding constant, this corresponds to a “c-value” of 6.7, which is within the commonly acceptable range for the accurate determination of binding thermodynamics. For competitive titrations, nickel was included in TBS without EDTA at concentrations ranging from 0-10 mM. Competitive VHH/RNase A titration experiments with a “c” value greater than 10 included protein concentrations ranging from 30 μM to 205 μM. Conditions included a 10-fold higher concentration of titrant (VHH). […] These experiments included using a 100-fold higher concentration of titrant (RNase A) relative to VHH. RNase A concentrations were between 150 μM and 800 μM. […] For nickel/VHH titrations, the titrant nickel was dissolved in the appropriate dialysis buffer at a 10× concentration of the VHH. Experiments typically included 27, 10 μL injections with a 240 second delay between each injection. Dilution titrations indicated the absence of significant heats of dilution, consequently, no background dilution heat subtractions were necessary. The binding parameters (K, ΔH°, ΔS°, and n) were determined using the single site binding model using the ITC add-in in Origin version 7 (MicroCal LLC).

[2] = molecular target: T1, bovine pancreatic RNase A; test: ITC, 25 C, RNase A binding with 1 mM nickel present
Description: (§2) The binding parameters (K, ΔH°, ΔS°, and n) were determined using the single site binding model using the ITC add-in in Origin version 7 (MicroCal LLC). All titrations indicated a 1:1 interaction with observed stoichiometries equal to 1.0 (within 5%).
(§3) ITC experiments were performed using a MicroCal VP-ITC (MicroCal, LLC, Northampton, Mass.). All experiments were performed at 25° C. Proteins were dialyzed against the desired experimental buffer, which included PBS (20 mM NaPhosphate, 150 mM NaCl pH 7.4), TBS (20 mM Tris-HCl, 150 mM NaCl pH 7.4) and TBS-E (20 mM Tris, 150 mM NaCl, 1 mM EDTA, pH 7.4). For direct titration of NiCl₂ into the VHHmetal variant, concentrations were 2 mM and 200 μM for NiCl₂ and VHH, respectively. Based on the observed binding constant, this corresponds to a “cvalue” of 6.7, which is within the commonly acceptable range for the accurate determination of binding thermodynamics (Tellinghuisen, 2008; Wiseman et al. 1989). For competitive titrations, nickel was included in TBS without EDTA at concentrations ranging from 0-10 mM. Competitive VHH/RNase A titration experiments with a “c” value greater than 10 included protein concentrations ranging from 30 μM to 205 μM. Conditions included a 10-fold higher concentration of titrant (VHH). […] These experiments included using a 100-fold higher concentration of titrant (RNase A) relative to VHH. RNase A concentrations were between 150 μM and 800 μM. Extinction coefficients were determined using values determined by the methods described by Pace, et. al. (1995). […] For nickel/VHH titrations, the titrant nickel was dissolved in the appropriate dialysis buffer at a 10× concentration of the VHH. Experiments typically included 27, 10 μL injections with a 240 second delay between each injection. Dilution titrations indicated the absence of significant heats of dilution, consequently, no background dilution heat subtractions were necessary. The binding parameters (K, ΔH°, ΔS°, and n) were determined using the single site binding model using the ITC add-in in Origin version 7 (MicroCal LLC).

[3] = molecular target: T1, bovine pancreatic RNase A; test: ITC, pH 7.4
[4] = molecular target: T1, bovine pancreatic RNase A; test: ITC, pH 6, PBS
[5] = molecular target: T1, bovine pancreatic RNase A; test: ITC, pH 7, PBS
[6] = molecular target: T1, bovine pancreatic RNase A; test: ITC, pH 8, TRIS
[7] = molecular target: T1, bovine pancreatic RNase A; test: ITC, pH 7.4, PBS
[8] = molecular target: T1, bovine pancreatic RNase A; test: ITC, pH 5.5, acetate
[9] = molecular target: T1, bovine pancreatic RNase A; test: ITC, pH 5, piperazine
[10] = molecular target: T1, bovine pancreatic RNase A; test: ITC, pH profile 8.0 to 4.5
[11] = molecular target: T1, bovine pancreatic RNase A; test: ITC, pH 6.5, imidazole
[12] = molecular target: T1, bovine pancreatic RNase A; test: ITC, pH 4.5, piperazine
[13] = molecular target: T1, bovine pancreatic RNase A; test: ITC, pH 4.74, piperazine
[14] = molecular target: T1, bovine pancreatic RNase A; test: ITC, pH 7.4, against wild-type VHH
[15] = molecular target: T1, bovine pancreatic RNase A; test: ITC, 25 C, no metal; remark: listed apart in the source
Description: (§4) Isothermal titration calorimetry (ITC) was used to evaluate the thermodynamic basis for VHH-metal's dual function. […] As expected, titrations of nickel into wild-type anti-RNase A VHH produced no measurable binding.
(§5) ITC experiments were performed using a MicroCal VP-ITC (MicroCal, LLC, Northampton, Mass.). All experiments were performed at 25° C. Proteins were dialyzed against the desired experimental buffer, which included PBS (20 mM NaPhosphate, 150 mM NaCl pH 7.4), TBS (20 mM Tris-HCl, 150 mM NaCl pH 7.4) and TBS-E (20 mM Tris, 150 mM NaCl, 1 mM EDTA, pH 7.4). For direct titration of NiCl₂ into the VHH-metal variant, concentrations were 2 mM and 200 μM for NiCl2 and VHH, respectively. Based on the observed binding constant, this corresponds to a “c-value” of 6.7, which is within the commonly acceptable range for the accurate determination of binding thermodynamics. For competitive titrations, nickel was included in TBS without EDTA at concentrations ranging from 0-10 mM. Competitive VHH/RNase A titration experiments with a “c” value greater than 10 included protein concentrations ranging from 30 μM to 205 μM. Conditions included a 10-fold higher concentration of titrant (VHH).

[16] = molecular target: T1, bovine pancreatic RNase A; test: ITC, 25 C, pH 7.4, no metal
Description: as §1

[17] = molecular target: T1, bovine pancreatic RNase A; test: ITC, 25 C, no metal, against wild-type VHH
Description: as §4, §5

[18] = molecular target: T1, bovine pancreatic RNase A; test: ITC, 25 C, RNase A binding with 1 µM nickel present
Description: as §2, §3

[19] = molecular target: T1, bovine pancreatic RNase A; test: ITC, 25 C, RNase A binding with 10 mM nickel present
Description: as §2, §3

[20] = molecular target: T1, bovine pancreatic RNase A; test: ITC, 25 C, RNase A binding with 10 µM nickel present
Description: as §2, §3

[21] = molecular target: T1, bovine pancreatic RNase A; test: ITC, 25 C, RNase A binding with 100 µM nickel present
[22] = molecular target: T1, bovine pancreatic RNase A; test: competitive phage ELISA with and without 1 mM metals (Zn2+, Co2+, Ni2+)

- -TΔS° [1]: 1.9 kcal/mol
- Kd [1]: 19 nM
- ΔG° [1]: -10.5 kcal/mol
- ΔH° [1]: -12.4 kcal/mol
- -TΔS° [2]: 0.9 kcal/mol
- Kd [2]: 16 nM
- ΔG° [2]: -10.6 kcal/mol
- ΔH° [2]: -10.7 kcal/mol
B1: wild-type anti-RNase A VHH (cAb-RN05) (VHH)
VHH: QVQLVESGGGLVQAGGSLRLSCAASGYAYTYIYMGWFRQAPGKEREGVAAMDSGGGGTLYADSVKGRFTISRDKGKNTVYLQMDSLKPEDTATYYCAAGGGYELRDRTYGQWGQGTQVTVSS
notes: Camelid single-domain antibody; Made in E. coli with an N-terminal hexa-His-TEV tag for ITC; also called VHH-wt; wt-VHH

- Kd [3]: 91 nM
- -TΔS [4]: -8.6 kcal/mol
- Kd [4]: 6500 nM
- ΔG [4]: -7.07 kcal/mol
- ΔH [4]: 1.5 kcal/mol
- -TΔS [5]: 0.7 kcal/mol
- Kd [5]: 200 nM
- ΔG [5]: -9.07 kcal/mol
- ΔH [5]: -4.35 kcal/mol
- -TΔS [6]: -3.8 kcal/mol
- Kd [6]: 100 nM
- ΔG [6]: -9.37 kcal/mol
- ΔH [6]: -9 kcal/mol
- -TΔS [7]: -2.5 kcal/mol
- Kd [7]: 200 nM
- ΔG [7]: -9.31 kcal/mol
- ΔH [7]: -6.84 kcal/mol
- Kd [8]: 6300 nM
- ΔG [8]: -7.09 kcal/mol
- ΔH [8]: 3 kcal/mol
- -TΔS [9]: -2.4 kcal/mol
- Kd [9]: 12000 nM
- ΔG [9]: -7.03 kcal/mol
- ΔH [9]: -4.8 kcal/mol
- fold decrease of the observed binding constant on decreasing the pH [10]: ~10000 fold
- Kd [11]: 400 nM
- ΔG [11]: -8.73 kcal/mol
- ΔH [11]: -9.44 kcal/mol
- -TΔS [12]: 25.4 kcal/mol
- ΔG [12]: -5.11 kcal/mol
- ΔH [12]: -30 kcal/mol
- -TΔS [13]: 6.8 kcal/mol
- Kd [13]: 75000 nM
- ΔG [13]: -5.62 kcal/mol
- ΔH [13]: -12.4 kcal/mol
- fold difference of binding affinity from the wild-type value [14]: ≤ 5 fold
B2: VHH#24 (pH clone #24) (VHH)
VHH: B1 VHH with A28H, Y29H, Y102H, E103H, R107H

- Kd [15]: 155 nM
- -TΔS° [16]: 9 kcal/mol
- Kd [16]: 157 nM
- ΔG° [16]: -9.3 kcal/mol
- ΔH° [16]: -17.8 kcal/mol
- fold decrease in binding affinity against wild type [17]: ~8 fold
- ΔΔG° [17]: 1.2 kcal/mol
- -TΔS° [18]: 8 kcal/mol
- Kd [18]: 160 nM
- ΔG° [18]: -9.27 kcal/mol
- ΔH° [18]: -17.2 kcal/mol
- -TΔS° [2]: 0.09 kcal/mol
- Kd [2]: 5640 nM
- ΔG° [2]: -7.13 kcal/mol
- ΔH° [2]: -7.2 kcal/mol
- -TΔS° [19]: 1.3 kcal/mol
- Kd [19]: 34000 nM
- ΔG° [19]: -6.07 kcal/mol
- ΔH° [19]: -7.3 kcal/mol
- -TΔS° [20]: 3.6 kcal/mol
- Kd [20]: 219 nM
- ΔG° [20]: -9.1 kcal/mol
- ΔH° [20]: -12.7 kcal/mol
- -TΔS° [21]: -1 kcal/mol
- Kd [21]: 900 nM
- ΔG° [21]: -8.27 kcal/mol
- ΔH° [21]: -7 kcal/mol
- fold change in IC50 [22]: 1000 fold
B3: VHH-metal (metal sensitive anti-RNase A VHH) (VHH)
VHH: B1 VHH with A28P, Y29H, T30P, I32L, Y33H, E103Q, Q111H
notes: also called Metal-VHH; metal clone VHH
